# From patent US20250368745A1 (published 2025)
# T1: human IL-18BP (human, UniProt O95998 31-194)
# T1 construct: UniProt printed as 095998; also called hIL-18BP
# T1 sequence: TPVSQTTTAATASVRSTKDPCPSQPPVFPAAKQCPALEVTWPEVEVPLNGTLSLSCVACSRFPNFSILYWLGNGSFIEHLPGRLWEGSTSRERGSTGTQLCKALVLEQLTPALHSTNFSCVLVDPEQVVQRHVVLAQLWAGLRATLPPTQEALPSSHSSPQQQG
# Molecular target: T1, human IL-18BP
# Assay: BLI, apparent KD
row,Binder,Kd [nM]
1,"SA301a HC-G97P (antibody, name in Kabat numbering, V domains shown, IgG1 kappa) VH: QVQLQESGPGLVKPSQTLSLTCTVSGYSITSDYNSHWIRQPPGKGLEWIGYIHYSGSTNYNPSLKSRVTISRDTSKNQFSLKLSSVTAADTAVYYCARNYPSIYVNYFDYWGQGTLVTVSS VL: EIVLTQSPATLSLSPGERATLSCSASSSVSYMYWYQQKPGQAPRPLIYRTSNLASGIPARFSGSGSGTDFTLTISSLEPEDFAVYYCQQYHSYPTFGGGTKVEIK",1.36
2,"SA301a HC-S98A (antibody, name in Kabat numbering, V domains shown, IgG1 kappa) VH: QVQLQESGPGLVKPSQTLSLTCTVSGYSITSDYNSHWIRQPPGKGLEWIGYIHYSGSTNYNPSLKSRVTISRDTSKNQFSLKLSSVTAADTAVYYCARNYGAIYVNYFDYWGQGTLVTVSS VL: EIVLTQSPATLSLSPGERATLSCSASSSVSYMYWYQQKPGQAPRPLIYRTSNLASGIPARFSGSGSGTDFTLTISSLEPEDFAVYYCQQYHSYPTFGGGTKVEIK",2.29
3,"SA301a HC-N95G (antibody, name in Kabat numbering, V domains shown, IgG1 kappa) VH: QVQLQESGPGLVKPSQTLSLTCTVSGYSITSDYNSHWIRQPPGKGLEWIGYIHYSGSTNYNPSLKSRVTISRDTSKNQFSLKLSSVTAADTAVYYCARGYGSIYVNYFDYWGQGTLVTVSS VL: EIVLTQSPATLSLSPGERATLSCSASSSVSYMYWYQQKPGQAPRPLIYRTSNLASGIPARFSGSGSGTDFTLTISSLEPEDFAVYYCQQYHSYPTFGGGTKVEIK",0.17
4,"SA301a HC-N95A (antibody, name in Kabat numbering, V domains shown, IgG1 kappa) VH: QVQLQESGPGLVKPSQTLSLTCTVSGYSITSDYNSHWIRQPPGKGLEWIGYIHYSGSTNYNPSLKSRVTISRDTSKNQFSLKLSSVTAADTAVYYCARAYGSIYVNYFDYWGQGTLVTVSS VL: EIVLTQSPATLSLSPGERATLSCSASSSVSYMYWYQQKPGQAPRPLIYRTSNLASGIPARFSGSGSGTDFTLTISSLEPEDFAVYYCQQYHSYPTFGGGTKVEIK",46.1
5,"SA301a HC-S98N (antibody, name in Kabat numbering, V domains shown, IgG1 kappa) VH: QVQLQESGPGLVKPSQTLSLTCTVSGYSITSDYNSHWIRQPPGKGLEWIGYIHYSGSTNYNPSLKSRVTISRDTSKNQFSLKLSSVTAADTAVYYCARNYGNIYVNYFDYWGQGTLVTVSS VL: EIVLTQSPATLSLSPGERATLSCSASSSVSYMYWYQQKPGQAPRPLIYRTSNLASGIPARFSGSGSGTDFTLTISSLEPEDFAVYYCQQYHSYPTFGGGTKVEIK",2.98
6,"SA301a HC-G97V (antibody, name in Kabat numbering, V domains shown, IgG1 kappa) VH: QVQLQESGPGLVKPSQTLSLTCTVSGYSITSDYNSHWIRQPPGKGLEWIGYIHYSGSTNYNPSLKSRVTISRDTSKNQFSLKLSSVTAADTAVYYCARNYVSIYVNYFDYWGQGTLVTVSS VL: EIVLTQSPATLSLSPGERATLSCSASSSVSYMYWYQQKPGQAPRPLIYRTSNLASGIPARFSGSGSGTDFTLTISSLEPEDFAVYYCQQYHSYPTFGGGTKVEIK",4.96
7,"SA301a HC-S98D (antibody, name in Kabat numbering, V domains shown, IgG1 kappa) VH: QVQLQESGPGLVKPSQTLSLTCTVSGYSITSDYNSHWIRQPPGKGLEWIGYIHYSGSTNYNPSLKSRVTISRDTSKNQFSLKLSSVTAADTAVYYCARNYGDIYVNYFDYWGQGTLVTVSS VL: EIVLTQSPATLSLSPGERATLSCSASSSVSYMYWYQQKPGQAPRPLIYRTSNLASGIPARFSGSGSGTDFTLTISSLEPEDFAVYYCQQYHSYPTFGGGTKVEIK",0.99
8,"SA301a HC-S98I (antibody, name in Kabat numbering, V domains shown, IgG1 kappa) VH: QVQLQESGPGLVKPSQTLSLTCTVSGYSITSDYNSHWIRQPPGKGLEWIGYIHYSGSTNYNPSLKSRVTISRDTSKNQFSLKLSSVTAADTAVYYCARNYGIIYVNYFDYWGQGTLVTVSS VL: EIVLTQSPATLSLSPGERATLSCSASSSVSYMYWYQQKPGQAPRPLIYRTSNLASGIPARFSGSGSGTDFTLTISSLEPEDFAVYYCQQYHSYPTFGGGTKVEIK",2.1
9,"SA301a HC-G97Q (antibody, name in Kabat numbering, V domains shown, IgG1 kappa) VH: QVQLQESGPGLVKPSQTLSLTCTVSGYSITSDYNSHWIRQPPGKGLEWIGYIHYSGSTNYNPSLKSRVTISRDTSKNQFSLKLSSVTAADTAVYYCARNYQSIYVNYFDYWGQGTLVTVSS VL: EIVLTQSPATLSLSPGERATLSCSASSSVSYMYWYQQKPGQAPRPLIYRTSNLASGIPARFSGSGSGTDFTLTISSLEPEDFAVYYCQQYHSYPTFGGGTKVEIK",7.04
10,"SA301a HC-S98G (antibody, name in Kabat numbering, V domains shown, IgG1 kappa) VH: QVQLQESGPGLVKPSQTLSLTCTVSGYSITSDYNSHWIRQPPGKGLEWIGYIHYSGSTNYNPSLKSRVTISRDTSKNQFSLKLSSVTAADTAVYYCARNYGGIYVNYFDYWGQGTLVTVSS VL: EIVLTQSPATLSLSPGERATLSCSASSSVSYMYWYQQKPGQAPRPLIYRTSNLASGIPARFSGSGSGTDFTLTISSLEPEDFAVYYCQQYHSYPTFGGGTKVEIK",2.57
11,"SA301a HC-S98K (antibody, name in Kabat numbering, V domains shown, IgG1 kappa) VH: QVQLQESGPGLVKPSQTLSLTCTVSGYSITSDYNSHWIRQPPGKGLEWIGYIHYSGSTNYNPSLKSRVTISRDTSKNQFSLKLSSVTAADTAVYYCARNYGKIYVNYFDYWGQGTLVTVSS VL: EIVLTQSPATLSLSPGERATLSCSASSSVSYMYWYQQKPGQAPRPLIYRTSNLASGIPARFSGSGSGTDFTLTISSLEPEDFAVYYCQQYHSYPTFGGGTKVEIK",5.41
12,"SA301a HC-S98H (antibody, name in Kabat numbering, V domains shown, IgG1 kappa) VH: QVQLQESGPGLVKPSQTLSLTCTVSGYSITSDYNSHWIRQPPGKGLEWIGYIHYSGSTNYNPSLKSRVTISRDTSKNQFSLKLSSVTAADTAVYYCARNYGHIYVNYFDYWGQGTLVTVSS VL: EIVLTQSPATLSLSPGERATLSCSASSSVSYMYWYQQKPGQAPRPLIYRTSNLASGIPARFSGSGSGTDFTLTISSLEPEDFAVYYCQQYHSYPTFGGGTKVEIK",6.42
13,"SA301a HC-N95Q (antibody, name in Kabat numbering, V domains shown, IgG1 kappa) VH: QVQLQESGPGLVKPSQTLSLTCTVSGYSITSDYNSHWIRQPPGKGLEWIGYIHYSGSTNYNPSLKSRVTISRDTSKNQFSLKLSSVTAADTAVYYCARQYGSIYVNYFDYWGQGTLVTVSS VL: EIVLTQSPATLSLSPGERATLSCSASSSVSYMYWYQQKPGQAPRPLIYRTSNLASGIPARFSGSGSGTDFTLTISSLEPEDFAVYYCQQYHSYPTFGGGTKVEIK",5.33
14,"SA301a HC-N95R (antibody, name in Kabat numbering, V domains shown, IgG1 kappa) VH: QVQLQESGPGLVKPSQTLSLTCTVSGYSITSDYNSHWIRQPPGKGLEWIGYIHYSGSTNYNPSLKSRVTISRDTSKNQFSLKLSSVTAADTAVYYCARRYGSIYVNYFDYWGQGTLVTVSS VL: EIVLTQSPATLSLSPGERATLSCSASSSVSYMYWYQQKPGQAPRPLIYRTSNLASGIPARFSGSGSGTDFTLTISSLEPEDFAVYYCQQYHSYPTFGGGTKVEIK",0.02
15,"SA301a HC-G97R (antibody, name in Kabat numbering, V domains shown, IgG1 kappa) VH: QVQLQESGPGLVKPSQTLSLTCTVSGYSITSDYNSHWIRQPPGKGLEWIGYIHYSGSTNYNPSLKSRVTISRDTSKNQFSLKLSSVTAADTAVYYCARNYRSIYVNYFDYWGQGTLVTVSS VL: EIVLTQSPATLSLSPGERATLSCSASSSVSYMYWYQQKPGQAPRPLIYRTSNLASGIPARFSGSGSGTDFTLTISSLEPEDFAVYYCQQYHSYPTFGGGTKVEIK",25.1
16,"SA301a HC-G97T (antibody, name in Kabat numbering, V domains shown, IgG1 kappa) VH: QVQLQESGPGLVKPSQTLSLTCTVSGYSITSDYNSHWIRQPPGKGLEWIGYIHYSGSTNYNPSLKSRVTISRDTSKNQFSLKLSSVTAADTAVYYCARNYTSIYVNYFDYWGQGTLVTVSS VL: EIVLTQSPATLSLSPGERATLSCSASSSVSYMYWYQQKPGQAPRPLIYRTSNLASGIPARFSGSGSGTDFTLTISSLEPEDFAVYYCQQYHSYPTFGGGTKVEIK",0.01
